Our source for the fold difference in affinity vs original and fold affinity vs original values is patent publication US20110118447A1.

To fix the notation:
B1: C5A (XPA23) VH K31V (antibody, V domains shown)
VH: EVQLLESGGGLVQPGGSLRLSCAASGFTFSVYFMFWVRQAPGKGLEWVSVISPSGGMTRYADSVKGRFTISRDNSKNTLYLQMNSLRAEDTAVYYCARVGYGGNSDYWGQGTLVTVSS
VL: DIQMTQSPSSVSASVGDRLTIICRASQDINRWLAWYQQTPGNAPKLLIHSATSLQSGVPSRFSGSGSGTDFTLTINSLQPEDFATYYCQQADSFPLTFGGGTKVEIK
B2: C5A (XPA23) VH K31L (antibody, V domains shown)
VH: B1 VH with V31L
VL: B1 VL
B3: C5A (XPA23) VH F33A (antibody, V domains shown)
VH: B1 VH with V31K, F33A
VL: B1 VL
B4: C5A (XPA23) VH Y32L (antibody, V domains shown)
VH: B1 VH with V31K, Y32L
VL: B1 VL
B5: C5A (XPA23) VH F33G (antibody, V domains shown)
VH: B1 VH with V31K, F33G
VL: B1 VL
B6: C5A (XPA23) VH F33V (antibody, V domains shown)
VH: B1 VH with V31K, F33V
VL: B1 VL
B7: C5A (XPA23) VH Y32V (antibody, V domains shown)
VH: B1 VH with V31K, Y32V
VL: B1 VL
B8: C5A (XPA23) VH K31F (antibody, V domains shown)
VH: B1 VH with V31F
VL: B1 VL
B9: C5A (XPA23) VH K31I (antibody, V domains shown)
VH: B1 VH with V31I
VL: B1 VL
B10: C5A (XPA23) VH Y32F (antibody, V domains shown)
VH: B1 VH with V31K, Y32F
VL: B1 VL
B11: C5A (XPA23) VH K31W (antibody, V domains shown)
VH: B1 VH with V31W
VL: B1 VL
B12: C5A (XPA23) VH Y32P (antibody, V domains shown)
VH: B1 VH with V31K, Y32P
VL: B1 VL
B13: C5A (XPA23) VH Y32G (antibody, V domains shown)
VH: B1 VH with V31K, Y32G
VL: B1 VL

Substitutions are numbered along the chain they refer to. Numbers in names are those of the source.

For one assay, the target named is binding partner of C5A (XPA23). Kind of assay: Biacore.
On to B1, for which the fold difference in affinity vs original was found to be 0.81 fold.
Regarding B2, the fold difference in affinity vs original turned out to be 1.08 fold.
Still for that read-out and setting: the same measure for B3: 0.75 fold; for B4: 0.75 fold; for B5: 0.76 fold.
Same read-out and setting: the same measure for B6: 0.76 fold.
As for B7, the fold difference in affinity vs original was 1.07 fold.
Regarding B8, the fold affinity vs original is 0.05 fold.
B9: the fold difference in affinity vs original came out at 0.74 fold.
Regarding B10, the fold affinity vs original stood at 0.75 fold.
In the case of B11, the fold affinity vs original stood at 0.84 fold.
Turning to B12, the fold difference in affinity vs original is 0.68 fold.
Consider B13, for which the fold difference in affinity vs original came to 1 fold.

The target in the next assay is binding partner of C5A (XPA23). Briefly: Biacore K-off.
Consider B1, for which the fold difference in affinity vs original came to 0.81 fold.
As for B2, the fold difference in affinity vs original turned out to be 1.08 fold.
Consider B3, for which the fold difference in affinity vs original worked out at 0.75 fold.
As to B4, the fold difference in affinity vs original turned out to be 0.75 fold.
Turning to B5, the fold difference in affinity vs original is 0.76 fold.
Turning to B6, the fold difference in affinity vs original was 0.76 fold.
For the molecule B7, the fold difference in affinity vs original amounted to 1.07 fold.
B8: the fold difference in affinity vs original was determined as 0.05 fold.
With B9, the fold difference in affinity vs original turned out to be 0.74 fold.
Regarding B10, the fold difference in affinity vs original is 0.75 fold.
Consider B11, for which the fold difference in affinity vs original was determined as 0.84 fold.
With B12, the fold difference in affinity vs original turned out to be 0.68 fold.
As to B13, the fold difference in affinity vs original stood at 1 fold.
